Data as given in patent US20120121597A1 (ROCKEFELLER UNIVERSITY, published 2012).

How the values were obtained:
human soluble CD4 (sCD4) [1] = molecular target: T1, human soluble CD4 (sCD4) (human, UniProt P01730 26-396); assay: SPR, Biacore-3000
T1 construct: also called human CD4

human soluble CD4 (sCD4) [2] = molecular target: T1, human soluble CD4 (sCD4); assay: competition ELISA on plate-coated sCD4; competitor: fixed concentration of HRP-labeled iMab
[3] = molecular target: CD4 receptor on the target cells of the virus neutralization assay (human, UniProt P01730 26-458); assay: cell-based or functional assay

B1: iMab mutant E95A (CDR-H3 ARAKDNYATGAWFA) (antibody, V domains shown)
VH: QVQLQQSGPEVVKPGASVKMSCKASGYTFTSYVIHWVRQKPGQGLDWIGYINPYNDGTDYDEKFKGKATLTSDTSTSTAYMELSSLRSEDTAVYYCARAKDNYATGAWFAYWGQGTLVTVSS
VL: DIVMTQSPDSLAVSLGERVTMNCKSSQSLLYSTNQKNYLAWYQQKPGQSPKLLIYWASTRESGVPDRFSGSGSGTDFTLTISSVQAEDVAVYYCQQYYSYRTFGGGTKLEIK
Human soluble CD4 (sCD4) [1]
  Kd: 7.7 nM
  koff: 0.0048 s⁻¹
  kon: 620000 M⁻¹ s⁻¹

B2: m36 (other)
VH: QVQLVQSGGGLVQPGGSLRLSCAASAFDFSDYEMSWVRQAPGKGLEWIGEINDSGNTIYNPSLKSRVTISRDNSKNTLYLQMNTLRAEDTAIYYCAIYGGNSGGEYWGQGTLVTVSS
notes: also called m36 polypeptide
Human soluble CD4 (sCD4) [2]
  binding result: no binding

B3: iMabm36 fusion antibody (bispecific antibody, human IgG1, kappa)
heavy: QVQLQQSGPEVVKPGASVKMSCKASGYTFTSYVIHWVRQKPGQGLDWIGYINPYNDGTDYDEKFKGKATLTSDTSTSTAYMELSSLRSEDTAVYYCAREKDNYATGAWFAYWGQGTLVTVSSASTKGPSVFPLAPSSKSTSGGTAALGCLVKDYFPEPVTVSWNSGALTSGVHTFPAVLQSSGLYSLSSVVTVPSSSLGTQTYICNVNHKPSNTKVDKKVEPKSCDKTHTCPPCPAPEFEGGPSVFLFPPKPKDTLMISRTPEVTCVVVDVSHEDPEVKFNWYVDGVEVHNAKTKPREEQYNSTYRVVSVLTVLHQDWLNGKEYKCKVSNKALPASIEKTISKAKGQPREPQVYTLPPSRDELTKNQVSLTCLVKGFYPSDIAVEWESNGQPENNYKTTPPVLDSDGSFFLYSKLTVDKSRWQQGNVFSCSVLHEALHSHYTQKSLSLSPGKLEGGGGSGGGGSGGGGSGQVQLVQSGGGLVQPGGSLRLSCAASAFDFSDYEMSWVRQAPGKGLEWIGEINDSGNTIYNPSLKSRVTISRDNSKNTLYLQMNTLRAEDTAIYYCAIYGGNSGGEYWGQGTLVTVSS
light: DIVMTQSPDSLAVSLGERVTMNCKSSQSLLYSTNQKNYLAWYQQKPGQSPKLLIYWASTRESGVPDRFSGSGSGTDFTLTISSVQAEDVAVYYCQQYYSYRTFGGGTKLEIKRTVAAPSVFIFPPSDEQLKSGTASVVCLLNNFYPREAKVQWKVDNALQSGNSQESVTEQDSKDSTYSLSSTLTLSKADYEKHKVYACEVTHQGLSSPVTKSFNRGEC
[3]
  IC50 (read off the curve), virus G23 [Virus (G23]: ~0.2 nM
